Target: T1, TGase (Guinea pig liver, EC 2.3.2.13) (UniProt P08587)
T1 construct: 0.001 U TGase (Guinea pig liver, EC 2.3.2.13, Sigma); purchased Sigma; host or cells: guinea pig liver
T1 sequence (P08587 1-690): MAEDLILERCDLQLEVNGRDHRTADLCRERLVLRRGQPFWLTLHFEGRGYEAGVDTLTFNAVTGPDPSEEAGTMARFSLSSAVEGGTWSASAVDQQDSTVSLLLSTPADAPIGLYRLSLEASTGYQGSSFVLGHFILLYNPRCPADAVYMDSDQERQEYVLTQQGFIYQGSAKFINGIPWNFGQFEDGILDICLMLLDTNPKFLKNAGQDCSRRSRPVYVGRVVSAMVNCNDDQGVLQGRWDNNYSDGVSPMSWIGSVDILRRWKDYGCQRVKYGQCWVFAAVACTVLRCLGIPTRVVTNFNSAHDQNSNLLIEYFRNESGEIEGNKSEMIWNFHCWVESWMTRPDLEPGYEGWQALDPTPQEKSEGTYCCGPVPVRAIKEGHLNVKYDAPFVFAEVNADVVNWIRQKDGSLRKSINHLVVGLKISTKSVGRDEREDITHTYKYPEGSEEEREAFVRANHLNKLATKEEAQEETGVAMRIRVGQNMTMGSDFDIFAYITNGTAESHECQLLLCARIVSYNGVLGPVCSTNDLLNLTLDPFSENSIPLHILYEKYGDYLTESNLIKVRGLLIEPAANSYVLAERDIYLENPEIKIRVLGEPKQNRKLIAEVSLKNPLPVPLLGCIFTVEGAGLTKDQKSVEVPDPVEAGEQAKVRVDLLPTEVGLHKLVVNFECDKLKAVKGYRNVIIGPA
Experiment: Inhibitory effect of synthetic peptides on TGase in vitro ([14C]-putrescine incorporation into succinylated casein)
Format: biochemical
Details: peptides 1×10^−8 M, preincubated 15 min at 37° C.; compared with the peptides known as PLA2 inhibitors
Text: It is needed to inhibit the activity of TGase in order to secure maximum anti-inflammatory activity since the TGase activates PLA2. A established TGase assay method was used to determine the enzymatic activity by measuring the incorporation of [1,4]^14C-putrescine into succinylated casein (Folk J E., et al., Transglutaminase. Methods in Enzymol 1985; 113; 358–375).
To determine the inhibitory activity, 0.001 U TGase (Guinea pig liver, EC 2.3.2.13, Sigma; 1.0 unit will catalyze the formation of […] of hydroxamate per min. from N- -CBZ-Gln-Gly and hydroxylamine at pH 6.0 at 37° C.) was preincubated for 15 minutes with the synthetic peptides in 0.1 ml (1×10^−8 M) at 37° C. before adding the TGase/peptide mixture to the substrate solution (0.5 ml) containing 0.1 M Tris-acetate pH 7.5, 1% succinylated casein, 1 mM EDTA, 10 mM CaCl2, 0.5% lubrol PX, 5 mM DTT, 0.15M NaCl and 0.5 mCi ^14C-putrescine [Dupont-New England Nuclear, Wilmington, […] (118 Ci/mole)]. […] The TCA-insoluble precipitates were collected onto GF/A glass fiber filters, washed with cold 5% TCA, dried and counted. […]
For inhibitory test of the peptides given, each value is the mean of data from three separate experiments (S.D.<10%). The value of TGase activity incubated without peptides was determined as 100% TGase activity that is 4.89 pmole putrescine/hr. % Inhibition was shown in FIG. 2.

Sequence | TGase activity (FIG. 2), result in words
KVLDGQDP [Peptide R2, synthetic peptide of the invention] | significantly reduced
KVLDPVKG [Peptide R1, synthetic peptide of the invention] | significantly reduced
